Measured values as given in PMC8297783, “Autocrine signaling by receptor tyrosine kinases in urothelial carcinoma of the bladder” (PLoS ONE, 2021).

Test system: FL3 cells
Experiment: cell proliferation assay, FL3 cells
Type: cell-based, Human
Settings: 1% FBS, 6 d, added MST1 alone 5 nM, relative to untreated cells

B1: MST1: exogenous cognate ligand of MST1R, added to cells at 5 nM (protein, UniProt P26927 19-711, looked up)
Hepatocyte growth factor-like …: QRSPLNDFQVLRGTELQHLLHAVVPGPWQEDVADAEECAGRCGPLMDCRAFHYNVSSHGCQLLPWTQHSPHTRLRRSGRCDLFQKKDYVRTCIMNNGVGYRGTMATTVGGLPCQAWSHKFPNDHKYTPTLRNGLEENFCRNPDGDPGGPWCYTTDPAVRFQSCGIKSCREAACVWCNGEEYRGAVDRTESGRECQRWDLQHPHQHPFEPGKFLDQGLDDNYCRNPDGSERPWCYTTDPQIEREFCDLPRCGSEAQPRQEATTVSCFRGKGEGYRGTANTTTAGVPCQRWDAQIPHQHRFTPEKYACKDLRENFCRNPDGSEAPWCFTLRPGMRAAFCYQIRRCTDDVRPQDCYHGAGEQYRGTVSKTRKGVQCQRWSAETPHKPQFTFTSEPHAQLEENFCRNPDGDSHGPWCYTMDPRTPFDYCALRRCADDQPPSILDPPDQVQFEKCGKRVDRLDQRRSKLRVVGGHPGNSPWTVSLRNRQGQHFCGGSLVKEQWILTARQCFSSCHMPLTGYEVWLGTLFQNPQHGEPSLQRVPVAKMVCGPSGSQLVLLKLERSVTLNQRVALICLPPEWYVVPPGTKCEIAGWGETKGTGNDTVLNVALLNVISNQECNIKHRGRVRESEMCTEGLLAPVGACEGDYGGPLACFTHNCWVLEGIIIPNRVCARSRWPAVFTRVSVFVDWIHKVMRLG
proliferation rate: significantly increased proliferation rate
